Laboratory results from patent US6492137B1, “Response element compositions and assays employing same” (The Salk Institute for Biological Studies, priority 1989, dated 2002).

Columns and labels:
[1] = target: T1, Retinoic acid receptor alpha (RARα), in CV-1 cells (Homo sapiens, UniProt P10276 P10276:1-462); assay: cell_activity; RA 1 µM, CV-1; details: tags: RSV or pRS expression vector; 5'-agct overhangs
T1 sequence: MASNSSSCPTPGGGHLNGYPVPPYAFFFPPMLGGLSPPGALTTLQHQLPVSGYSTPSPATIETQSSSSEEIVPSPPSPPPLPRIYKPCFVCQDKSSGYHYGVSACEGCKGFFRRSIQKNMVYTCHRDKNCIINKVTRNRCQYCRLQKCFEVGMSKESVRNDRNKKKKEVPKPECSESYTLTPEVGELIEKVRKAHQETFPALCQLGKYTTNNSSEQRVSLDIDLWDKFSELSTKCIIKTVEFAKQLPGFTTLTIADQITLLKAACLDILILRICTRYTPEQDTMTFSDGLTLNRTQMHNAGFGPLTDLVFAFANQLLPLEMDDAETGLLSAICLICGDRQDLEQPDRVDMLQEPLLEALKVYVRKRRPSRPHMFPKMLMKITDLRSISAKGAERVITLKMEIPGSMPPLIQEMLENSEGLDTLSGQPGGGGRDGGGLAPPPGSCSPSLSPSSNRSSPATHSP
Procedure: (§1) For cotransfection assays, a monkey kidney cell line CV-1 was kept in Dulbecco's modified Eagle's medium (DMEM) supplemented with 10% charcoal-resin double split calf bovine serum. Transfections were performed via calcium-phosphate precipitation method as described by Umesono, et al. in Cell 57: 1139–1146 (1989), with 0.5 μg of a pRS receptor expression plasmid, 1.0 μg of a reporter CAT plasmid, 5 μg of pRAS-βGAL [Umesono, et al., Cell 57: 1139–1146 (1989)] as an internal control, and 8.5 μg of carrier plasmid pUC19. The cells were transfected for 8 hours; after washing the DNA precipitates, the cells were then incubated for an additional 36 hours with or without the ligand (T_3, 100 nM; RA, 1 μM; 1,25-(OH)_2 vitamin D_3, 100 nM). Cell extracts were prepared for βGAL and CAT assays, as described by Umesono, et al., supra. Transfection of F9 teratocarcinoma cells was carried out employing a similar method except the cells were incubated for 12 hours in the presence of the DNA precipitates, and the RA was added at 1 μM for another 24 hours before harvesting the cells. 2, 5, and 4 μg of the reporter, pRAS-βGAL, and pUC19 were used, respectively.
(§2) Starting from the MHC-TRE (MHC-N), a set of oligonucleotides (see FIG. 4a) were designed to introduce variations in the half-site spacing (MCH+1), the half-site sequence (MHC-T), or both (MHC-R). A single copy of these oligonucleotides was placed in the basal reporter construct ΔSV-CAT (designated by "(−)" in FIG. 4b), giving rise to a set of CAT reporter plasmids together with one encoding TREp. Parallel cotransfections with expression plasmids for TRβ or RARα were performed in CV-1 cells along with the ΔSV-CAT reporter containing a single copy of the variant HRE. After addition of hormone (RA, 1 μM; T_3, 100 nM), the cell extracts were assayed for the CAT activity by […] the β-galactosidase activity produced by cotransfected pRAS-βGAL. In the figure, numbers in the columns indicate the level of induction of CAT activity by the hormone.

[2] = target: T2, Thyroid hormone receptor beta (TRβ), in CV-1 cells (Homo sapiens, UniProt P10828 P10828:1-461); assay: cell_activity; T3 100 nM, CV-1; details: tags: pRShTRβ, 5'-agct overhangs
T2 sequence: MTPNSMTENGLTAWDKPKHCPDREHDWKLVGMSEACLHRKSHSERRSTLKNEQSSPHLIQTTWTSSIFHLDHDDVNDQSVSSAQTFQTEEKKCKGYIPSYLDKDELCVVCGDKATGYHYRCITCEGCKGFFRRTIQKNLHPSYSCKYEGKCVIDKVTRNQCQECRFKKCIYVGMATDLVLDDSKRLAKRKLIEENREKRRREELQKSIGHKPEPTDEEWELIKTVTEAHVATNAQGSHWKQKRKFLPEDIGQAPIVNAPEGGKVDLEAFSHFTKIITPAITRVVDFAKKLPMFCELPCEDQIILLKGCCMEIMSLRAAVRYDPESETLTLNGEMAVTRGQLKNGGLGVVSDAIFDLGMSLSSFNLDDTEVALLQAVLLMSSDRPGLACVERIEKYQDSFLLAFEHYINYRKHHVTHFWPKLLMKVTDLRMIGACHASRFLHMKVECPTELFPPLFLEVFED
Procedure: as §1, §2

B1: MHC-R (dsDNA)
DNA 1: AGCTGGAGGTGAACAGGAGGTCAGCAAGCT
DNA 2: AGCTTGCTGACCTCCTGTTCACCTCCAGCT
activity [1]: 7.4 fold induction

B2: MHC-T (dsDNA)
DNA 1: AGCTGGAGGTGACAGGAGGTCAGCAAGCT
DNA 2: AGCTTGCTGACCTCCTGTCACCTCCAGCT
activity [2]: 15 fold induction
activity [1]: 2.6 fold induction

B3: TREp (dsDNA)
DNA 1: AGCTTCAGGTCATGACCTGAGAGCT
DNA 2: AGCTCTCAGGTCATGACCTGAAGCT
activity [2]: 14 fold induction
activity [1]: 9 fold induction

B4: MHC-N (dsDNA)
DNA 1: AGCTGGAGGTGACAGGAGGACAGCAAGCT
DNA 2: AGCTTGCTGTCCTCCTGTCACCTCCAGCT
activity ([2]; label: 32P): 10 fold induction

B5: MHC+1 (dsDNA)
DNA 1: AGCTGGAGGTGAACAGGAGGACAGCAAGCT
DNA 2: AGCTTGCTGTCCTCCTGTTCACCTCCAGCT
activity [2]: < 2 fold induction
activity [1]: 4 fold induction
